Measurements taken from the DeepSol protein solubility set.

Experiment: soluble on expression in E. coli; label from the status in PepcDB or PDB records

| Sequence | soluble on expression in E. coli |
| --- | --- |
| MKAYKLLTTASIGALMLGMSTAAYSDNWRYAHEEYEGDVQDVFAQAFKGYVEDNSDHTVQVYRFGELGESDDIMEQTQNGILQFVNQSPGFTGSLIPSAQIFFIPYLMPTDMDTVLEFFDESKAINEMFPKLYAEHGLELLKMYPEGEMVVTADEPITSPEDFDNKKIRTMTNPLLAETYKAFGATPTPLPWGEVYGGLQTGIIDGQENPIFWIESGGLYEVSPNLTFTSHGWFTTAMMANQDFYEGLSEEDQQLVQDAADAAYDHTIEHIKGLSEESLEKIKAASDEVTVTRLNDEQIQAFKERAPQVEEKFIEMTGEQGQELLDQFKADLKAVQSESEG | soluble |
| MKDTLMSIQIIPKTPNNDNVIPYVDEAIKIIDESGMHFRVGPLETTVQGNMNECLILIQSLNERMVELECPSIISQVKFYHVPDGITIETLTEKYDELEHHHHHH | soluble |
| MKECKKCKSNEYTNKQLVMMINECGHPLCKNCVDNIFALNSGNCHVCNRVLRKNNFREQIYEDPLIDKETFLRRKLRKIYNLKQDDFENLREFGDYQERFETVVYNLVFETNVNETNAEIQAFEEKHKEQIDRNKRRLDDDQKWIEDQLREERAMKARMTDHMEMDAKEQEAASAVTDTRKIMDELRDSNVAAEVILDRERKKQIEKELEEKEEQEKRKRRNKEMLQTRKRAAENMSFNTVIRVAGRAYVHQPLELVINGPPMPNVSEIEALGYLAHIRQPTAEYIAGGYTPMLGCSRALFEARIDLFSF | not soluble |
| MKEDKKVLHVANMTNGLIVYPDYDYIVYFPSSYTAAGTPLYFPEFAVPIDLIKALLEEKKVIMYDATVHENKELTDAFLKGVPTFLMALNRAIHGTKGLFEKLEKGYKVCPWQTPDIVQHAVYRLPKHYYKFLKKCVKLFAPEKRGKLWISIPENVELVVEKIDRRLNDNYEEIAKMIKEKKSIHTYRV | not soluble |
| MKEDLLDIVCCPLDKHDLTLDADATEDGEVMAGTLTCTDCGETYPIEDGIPNLLPPDMRDDAESASALEHHHHHH | not soluble |
| MKEERRRLLAKVAYLHYVQGKSQTLISKEMNIYRTTVCRMLAKAKEEGIVRIEIADYDADLFALEEYVRQQYGLEKLDLVPNQVEDTPMDTLTNVAKTAAEVFRHVVKDGDKIGLSWGATLSCLMDELNPKAMKDVFIYPLAGGPSHINAKYHVNTLVYRLARIFHGNSAFMNAMVIQEDKHLAKGILQSKYFNDILTSWDQLDLALVGIGGEPNSLEQSQWRDLLTSSDHDQLKYEKAVGEVCCRFFDQAGQPVYTGLQDRTIGISLEQLRRVPKTMAVATGKHKAKAILAALKAGFINYLVTDKETMLAVLALDEDIDLNNVLL | not soluble |
| MKEHVKDKKTAIMGAALKLFTERGFHGTSTAQISKNAGVATGTLFNYFPTKEDLINSLYFEVKGNLGHSMGVGLEAETTFQDKLKRIWSNLVNWGVNNQEEFLFVGQFCSSPYITKFTRDEVMKEYVFLHNFVDEGIKTGEVRDFPAELVIAMFYQGSREVVNLILDSDSSLDKNKIIADGFQILWRGLAKV | not soluble |
| MKEKISEKEYKALIRKTGKEHFDGEKEEYGDGTVGVWTYELRKYKLKPPVKVKYVTQEQFQEYKDSNNQRLIKIENKVDKLVEIVQIHGEQIKAQGETLQLILQTLQKMSDRLDKMEKRIDKLESK | soluble |
| MKEVIFTENAPKPIGPYSQAIKAGNFLFIAGQIPIDPKTGEIVKGDIKDQTRQVLENIKAILEAAGYSLNDVIKVTVYLKDMNDFAKMNEVYAEYFGESKPARVAVEVSRLPKDVLIEIEAIAYKE | soluble |
| MKEYLKEKAHQLPLTPGVYLMKDATDTIIYVGKAKKLKNRVSSYFINSNQHSRKTMRLVKQIIDFDVLHTDTELDALLLECQLIQQYRPRYNRQMNAYEQYSYVSVAVNERQLEIKLLNIPTKENCFGPYSIRRKLNRLKIILDSIYDLVPTNYWHQTFQKESAIPTELFQQELFDFFHNQGREPIKRIAQQMQEAAEKQAFEKAAKLKEDWLFLTRFANQNQRISQANQRDWQLMWLPCQKKIKYYLIYQGLVVATRVVTKQTFQKYSPLELAKKIMPKKPPKTIEHYSKQQVDFLNILYGYISRHPECHLENLTIEKA | not soluble |
| MKFELDTTDGRARRGRLVFDRGVVETPCFMPVGTYGTVKGMTPEEVEATGAQIILGNTFHLWLRPGQEIMKLHGDLHDFMQWKGPILTDSGGFQVFSLGDIRKITEQGVHFRNPINGDPIFLDPEKSMEIQYDLGSDIVMIFDECTPYPADWDYAKRSMEMSLRWAKRSRERFDSLGNKNALFGIIQGSVYEDLRDISVKGLVDIGFDGYAVGGLAVGEPKADMHRILEHVCPQIPADKPRYLMGVGKPEDLVEGVRRGIDMFDCVMPTRNARNGHLFVTDGVVKIRNAKYKSDTGPLDPECDCYTCRNYSRAYLHHLDRCNEILGARLNTIHNLRYYQRLMAGLRKAIEEGKLESFVTDFYQRQGREVPPLNVD | soluble |
| MKFFILSTTLLLIGVQCGYPVAQNSYPTPPPPSDSYVVPKQSYPTAPGAYATKHSFPQNSAPVTAPPLPPPPAPSGYSSDDASVTSNVAASPPAPPTDAQIVGSSSSSTNYGGSSPTYGGSLSSGGIVGGNSLNYGTYNSASAGTPAATGAGASSGYRRRAKAKARARARARTAPNRRLHQRRHLQPIRRFRFQKKAKQ | soluble |
| MKFFVFALILALMLSMTGADSHAKRHHGYKRKFHEKHHSHRGYRSNYLYDNLEHHHHHH | not soluble |
| MKFIHLTDIHLMPPGQSVSGSDPIEKLSKVFEDIATWHSDAEFCVVSGDLADLGDRESYEWLRQRLAHFPVPVFLMLGNHDVRETFISVFPDHPRDANGFIQHAHTAGGARFLFLDTLTGGPDIHDGELCNDRLAWFAAELERAGDMPVYVFLHHPPFDIAIPYVDEIKLRQPDAFHAALQAGRNIRHIFYGHVHRTTYVNWRGYPFTSLPSTNHQVPLIPEREGQEHSAEPLAYGVATIEGDQFTLHVDHYLGK | not soluble |
| MKFKDLRDFVQQLEQRGELKRIQMPISPVLEMTEICDRTLRAKGPALLFENPVGFDIPVLGNLFGTPERVAMGMGAEAVTELREIGKLLAFLKEPEPPKGLKDAWSKLPIFRKVIAMAPKVVKDAPCQEIVIEGDDVDLGMLPVQTCWPGDVAPLITWGLTVTKGPNKERQNLGIYRQQVIGRNKIIMRWLSHRGGALDFRDWCVKHPGEPYPVAVALGADPATILGAVTPVPDSLSEYAFAGLLRGSRTELIKCRGSNLQVPASAEIVLEGVIHPGEMANEGPYGDHTGYYNEVDSFPVLTVERITHRIKPIYHSTYTGRPPDEPAILGVALNEVFVPILQKQFPEIVDFYLPPEGCSYRMAVVTIKKQYPGHAKRVMLGVWSFLRQFMYTKFVIVTDDDINARDWNDVIWAITTRMDPKRDTVMIDNTPIDYLDFASPVSGLGSKMGLDATNKWPGETTREWGRAIVKDEATTRRVDEIWTQLGIDLEHHHHHH | not soluble |
| MKFKQIILAGAVLATSTFTSLTNAQAETGFRDVPSDHWSYNAIMGLKEKNIVAGYGNGMFGFGDNITRGQVARLIYAYLKPADEHNAPNPFTDVKGHMFEKEILSLSKAGIMNGFGDGKFGPDNVLTREQLAVVLTKAFNFKATSTTTFKDVDKNYWATNAISALQENKIAAGTGDNLFEPKNIVTREQYAQFLYNAMNTVEVKPELTPFGIPSSMITNDFYYNSNNWKNASPVLKKSVSNEAQNLITKINKKYNEDYKYESASVSSMGLPESVQLRTSNPNLGRVYDLGQGQFFVQGENEHDFYIMFIIDNATVELAKSWITLINSDLNLDKEINDVIAMPSQKARGRDYHTYLDKGKYQIELGTSPQTKGYDSLFIGIKRK | not soluble |
| MKFLHTADLHLGKIVSGVSMLAEQEYILAQITKIAEEEQVDALILAGDLYDRAVPPADAVKVLNDILVKWNVELGIPIFAISGNHDSAERLAFGSQWYESSKLYMKGKCTSQFEAISFMDAEVWLVPYHEPAIIREAFADNSIRSFEDAMQAVTKQIRSKWDTSKAQILVGHAFVSGGIPSDSERQLAIGNVDRVSTDCFDGFTYTALGHLHHPHAIRHPSIFYSGSPLKYSFSEANDHKSVRIVELEGKELVSVTERFLTPKHDMRIISGTLAELTENLVENPDDFFQVNLMDEGALIDPMGKLRQFYPNILHLERKKQTLKETQDNFEEIMKKDDLELFGQFFEHVNGTELTETQKQKLADVFEQARKEDAE | not soluble |
| MKFSDFFHAWLHESYYKNAVSIGKNGDFFTAVSVGNLFGTLLAKHFLNLIDEKILKPPLELVEIGANEGYLSRDFLAALLELRPEIFSQISFFIIEPHEKLRTLQKKTLEGVEFTHKNSLKECHFKNAFFFCNELFDSFTCELIDHDKMAFVENFKLIFKNMDENLITKCKALNLTKGELSLELENFFKDLNQTCERFIFAGFDYGTLNPQSFSLRIYQKHEVFSPFEVSLKDFFGKSDLTYNVNFTHLQKLIKEYDFKPLAFKKQSLAFMDFGFEDLLEYAKNKNIKTYESFLSQAKILFFNFDEKFHFFEFQKNMGHHHHHHSH | soluble |
| MKFSVLTLFPQLVWPYFEDSILKRALEKNLFELEVLNLRDFSANKYQKADHTLIGGGAGQILDPEMVENALHSVKNPKHTIFLSAVGKPFKQTDAMRLAQKKHVVLVCGRYEGFDERSIELGADEVFCIGDFILTGGELGALCLIDSIARHIQGVLGNAQSLENESFENHYLEAPNFANAVFKSKEINKIPAPLEYSKGNHAKIKQLKLDLSKLRTKFYRLDLFKQHKSLEHHHHHH | not soluble |
| MKFVVASYGTRGDIEPCAAVGLELQRRGHDVCLAVPPNLIGFVETAGLSAVAYGSRDSQEQLDEQFLHNAWKLQNPIKLLREAMAPVTEGWAELSAMLTPVAAGADLLLTGQIYQEVVANVAEHHGIPLAALHFYPVRANGEIAFPARLPAPLVRSTITAIDWLYWRMTKGVEDAQRRELGLPKASTPAPRRMAVRGSLEIQAYDALCFPGLAAEWGGRRPFVGALTMESATDADDEVASWIAADTPPIYFGFGSMPIGSLADRVAMISAACAELGERALICSGPSDATGIPQFDHVKVVRVVSHAAVFPTCRAVVHHGGAGTTAAGLRAGIPTLILWVTSDQPIWAAQIKQLKVGRGRRFSSATKESLIADLRTILAPDYVTRAREIASRMTKPAASVTATADLLEDAARRAR | not soluble |
| MKGDVSPIFSPKHLQFKRPTLWRYGRIQKISIMSSKRSSPTGKLRLLSFLRDLLEDESNSDIIYWFDKSESVFKMSKPHKVAELWGAATGNPGMNYDKMSRGLRYFYTNNTLEKVPGKDARYRFIDSPRHSFLDFSMKTELETPVKRTPLFNISNLISDFEVSNNSLTSSPTSSASSVEPSSPTTTESSLDPSQFVQLTQNLVQFNTFMSQNPMFHTLPLPTQLQVFFNFKTIFPSLFPALV | not soluble |
| MKGLYPESVISRFDFAVTEDNKIKMLEFNSDTPTFIVECFQMNGKVCGNLGYDDPNSDQERLLSSGVTKAVMEATKGLDNPNVVFTAHHEHIEDWNTTMYLSQLCHVENKVVPMSELRITKDALVDKDGAKIDVLYRQTYPIEDLIEDQDPETGDLVGVELLQLVKAGKLFIINPLSAFLLQPKSIQCLIWGLAEEEAFYTNEEQQWIKEYMLPTYLEPDLFLGKGSFVQKPSFGREGDTITIRDKDENIMLQNAHQTYKASLPIFQKYIELPVVSLETEKGIEKLSYVFGSFLIAGKASSIGIRAGEKITGNESYYLPVGIKRRGKND | not soluble |
| MKGYSMAKCLTLNTHSWMEVNALKKLFDLAEHIFREKYDIICLQEVNQSISSPLAKSSPNYHPIEGTPALHQDNFALQLVHYLNLQGLHYHWTWAYNHIGYSKYHEGVAILSLKPLKPEDILVSAVDDETDYHTRRALVAETTLNDKVVTVVSLHFSWFEKGFAEEWKRLETTLLEVETPLLLMGDFNNPTGNQGYELVLNSPLALKDSHQIANHVFGDHTIMADIDGWEGNKKALKVDHIFTSEDLSISSSQVVFEGGEAPVVSDHYGLEITMDF | not soluble |
